Source: patent US20140271661A1 (published 2014)
Positions count from the first letter of the chain named.

Molecular target: human antithrombin β complexed with heparin (human ATβH) (human, UniProt P01008 33-464, lacks glycosylation at Asn135 (β glyco-isoform); complexed with heparin)
Test: Biacore

Sequence of human antithrombin β complexed with heparin (human ATβH) (P01008 33-464, one chain of several): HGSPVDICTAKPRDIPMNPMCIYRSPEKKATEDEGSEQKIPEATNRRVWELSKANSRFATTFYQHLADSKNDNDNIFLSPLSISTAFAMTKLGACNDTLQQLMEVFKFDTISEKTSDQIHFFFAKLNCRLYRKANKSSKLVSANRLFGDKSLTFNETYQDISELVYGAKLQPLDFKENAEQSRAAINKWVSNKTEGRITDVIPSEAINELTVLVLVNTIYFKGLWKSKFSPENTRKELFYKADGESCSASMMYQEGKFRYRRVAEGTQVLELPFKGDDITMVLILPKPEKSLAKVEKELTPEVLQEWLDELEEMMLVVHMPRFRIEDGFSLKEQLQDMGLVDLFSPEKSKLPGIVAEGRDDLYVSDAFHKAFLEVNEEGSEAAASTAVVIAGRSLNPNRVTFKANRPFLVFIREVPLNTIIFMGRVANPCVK

B1: TPP2009 hIgG1 (antibody, V domains shown)
VH: EVQLLESGGGLVQPGGSLRLSCAASGFTFSAYRMGWVRQAPGKGLEWVSRIYSSGGRTRYADSVKGRFTISRDNSKNTLYLQMNSLRAEDTAVYYCAREKASDLSGSFSEALDYWGQGTLVTVSS
VL: AQSVLTQDPAVSVALGQTVRITCQGDSLRSYYASWYQQKPGQAPVLVIYGKNNRPSGIPDRFSGSSSGNTASLTITGAQAEDEADYYCNSRDSSGNHLVFGGGTKLTVLG
Kd: 11.9 nM

B2: TPP-2016 hIgG (antibody, V domains shown)
VH: B1 VH with A31K, G35D, Y52G, S53P, R57K, R59T, A101T, F108Y
VL: DIQMTQSPATLSVSPGERATLSCRASQNINRNLAWYQQKPGRAPRLLIHTASTRAPGVPVRITGSGSGTEFTLTISSLEPEDFAVYFCQQYASPPRTFGQGTKVEIKR
Kd: 18.9 nM

B3: TPP-2019 hIgG (antibody, V domains shown)
VH: EVQLLESGGGLVQPGGSLRLSCAASGFTFSRYAMYWVRQAPGKGLEWVSRISPSGGKTHYADSVKGRFTISRDNSKNTLYLQMNSLRAEDTAVYYCARLSQTGYYPHYHYYGMDVWGQGTTVTVSS
VL: DIQMTQSPATLSLSPGERATLSCRASQRVSSSYLTWYQQKPGQAPRLLIYGASSRATGIPDRFSGSGSGTDFTLTISRLEPEDFAVYYCQQYDSTPPLTFGGGTKVEIKR
Kd: 17.2 nM
